The target in this experiment is cys-protein G conjugated to a peptide nucleic acid strand (PG-PNA).

Turning to “RBD, Fc (SARS-CoV-2 spike receptor binding domain with Fc) (from UniProt P0DTC2) (Fc fusion)”, the stoichiometry N – broadly, the number of molecules, sites or subunits per partner or assembly – is 2.82 RBD:PG.

For the origin of these results see PMC10034259.
